Key:
Assay in all cases: SPR, Fab on captured PD-1-Fc;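 further: Alanine-scan PD-1 Fc fusions expressed transiently in ExpiCHO, captured on anti-human IgG Fc surface in IBIS MX96, anti-PD-1 Fab association 15 min, dissociation 30 min, Langmuir 1:1 fit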
human PD-1 ECD-Fc C93A = target: T1, human PD-1 ECD-Fc C93A (human, UniProt Q15116 21-170)
T1 construct: not shown: human IgG1 Fc, residues P101-K330

human PD-1 ECD-Fc N102A = target: T2, human PD-1 ECD-Fc N102A (human, UniProt Q15116 21-170)
T2 construct: not shown: human IgG1 Fc, residues P101-K330

human PD-1 ECD-Fc G124A = target: T3, human PD-1 ECD-Fc G124A (human, UniProt Q15116 21-170)
T3 construct: not shown: human IgG1 Fc, residues P101-K330

human PD-1 ECD-Fc K131A = target: T4, human PD-1 ECD-Fc K131A (human, UniProt Q15116 21-170)
T4 construct: not shown: human IgG1 Fc, residues P101-K330

human PD-1 ECD-Fc A132G = target: T5, human PD-1 ECD-Fc A132G (human, UniProt Q15116 21-170)
T5 construct: not shown: human IgG1 Fc, residues P101-K330

human PD-1 ECD-Fc Q133A = target: T6, human PD-1 ECD-Fc Q133A (human, UniProt Q15116 21-170)
T6 construct: not shown: human IgG1 Fc, residues P101-K330

human PD-1 ECD-Fc K135A = target: T7, human PD-1 ECD-Fc K135A (human, UniProt Q15116 21-170)
T7 construct: not shown: human IgG1 Fc, residues P101-K330

human PD-1 ECD-Fc E136A = target: T8, human PD-1 ECD-Fc E136A (human, UniProt Q15116 21-170)
T8 construct: not shown: human IgG1 Fc, residues P101-K330

human PD-1 ECD-Fc L138A = target: T9, human PD-1 ECD-Fc L138A (human, UniProt Q15116 21-170)
T9 construct: not shown: human IgG1 Fc, residues P101-K330

human PD-1 ECD-Fc A149G = target: T10, human PD-1 ECD-Fc A149G (human, UniProt Q15116 21-170)
T10 construct: not shown: human IgG1 Fc, residues P101-K330

human PD-1 ECD-Fc H155A = target: T11, human PD-1 ECD-Fc H155A (human, UniProt Q15116 21-170)
T11 construct: not shown: human IgG1 Fc, residues P101-K330

human PD-1 ECD-Fc P156A = target: T12, human PD-1 ECD-Fc P156A (human, UniProt Q15116 21-170)
T12 construct: not shown: human IgG1 Fc, residues P101-K330

human PD-1 ECD-Fc P158A = target: T13, human PD-1 ECD-Fc P158A (human, UniProt Q15116 21-170)
T13 construct: not shown: human IgG1 Fc, residues P101-K330

human PD-1 ECD-Fc Q165A = target: T14, human PD-1 ECD-Fc Q165A (human, UniProt Q15116 21-170)
T14 construct: not shown: human IgG1 Fc, residues P101-K330

human PD-1 ECD-Fc Q167A = target: T15, human PD-1 ECD-Fc Q167A (human, UniProt Q15116 21-170)
T15 construct: label printed under 'Rat mutation', values in r90; not shown: human IgG1 Fc, residues P101-K330

human PD-1 ECD-Fc P28L = target: T16, human PD-1 ECD-Fc P28L (human, UniProt Q15116 21-170)
T16 construct: also called Rat mutation P28L; not shown: human IgG1 Fc, residues P101-K330

human PD-1 ECD-Fc A40T = target: T17, human PD-1 ECD-Fc A40T (human, UniProt Q15116 21-170)
T17 construct: also called Rat mutation A40T; not shown: human IgG1 Fc, residues P101-K330

human PD-1 ECD-Fc D29A = target: T18, human PD-1 ECD-Fc D29A (human, UniProt Q15116 21-170)
T18 construct: not shown: human IgG1 Fc, residues P101-K330

human PD-1 ECD-Fc L42A = target: T19, human PD-1 ECD-Fc L42A (human, UniProt Q15116 21-170)
T19 construct: not shown: human IgG1 Fc, residues P101-K330

human PD-1 ECD-Fc V44A = target: T20, human PD-1 ECD-Fc V44A (human, UniProt Q15116 21-170)
T20 construct: not shown: human IgG1 Fc, residues P101-K330

human PD-1 ECD-Fc G47A = target: T21, human PD-1 ECD-Fc G47A (human, UniProt Q15116 21-170)
T21 construct: not shown: human IgG1 Fc, residues P101-K330

human PD-1 ECD-Fc N49A = target: T22, human PD-1 ECD-Fc N49A (human, UniProt Q15116 21-170)
T22 construct: not shown: human IgG1 Fc, residues P101-K330

human PD-1 ECD-Fc T59A = target: T23, human PD-1 ECD-Fc T59A (human, UniProt Q15116 21-170)
T23 construct: not shown: human IgG1 Fc, residues P101-K330

human PD-1 ECD-Fc S60A = target: T24, human PD-1 ECD-Fc S60A (human, UniProt Q15116 21-170)
T24 construct: not shown: human IgG1 Fc, residues P101-K330

human PD-1 ECD-Fc Y68A = target: T25, human PD-1 ECD-Fc Y68A (human, UniProt Q15116 21-170)
T25 construct: not shown: human IgG1 Fc, residues P101-K330

human PD-1 ECD-Fc S71A = target: T26, human PD-1 ECD-Fc S71A (human, UniProt Q15116 21-170)
T26 construct: not shown: human IgG1 Fc, residues P101-K330

human PD-1 ECD-Fc P72A = target: T27, human PD-1 ECD-Fc P72A (human, UniProt Q15116 21-170)
T27 construct: not shown: human IgG1 Fc, residues P101-K330

human PD-1 ECD-Fc A80G = target: T28, human PD-1 ECD-Fc A80G (human, UniProt Q15116 21-170)
T28 construct: not shown: human IgG1 Fc, residues P101-K330

human PD-1 ECD-Fc P83A = target: T29, human PD-1 ECD-Fc P83A (human, UniProt Q15116 21-170)
T29 construct: not shown: human IgG1 Fc, residues P101-K330

human PD-1 ECD-Fc Q88A = target: T30, human PD-1 ECD-Fc Q88A (human, UniProt Q15116 21-170)
T30 construct: not shown: human IgG1 Fc, residues P101-K330

human PD-1 ECD-Fc P89A = target: T31, human PD-1 ECD-Fc P89A (human, UniProt Q15116 21-170)
T31 construct: not shown: human IgG1 Fc, residues P101-K330
T31 sequence (Q15116 21-170 P89A): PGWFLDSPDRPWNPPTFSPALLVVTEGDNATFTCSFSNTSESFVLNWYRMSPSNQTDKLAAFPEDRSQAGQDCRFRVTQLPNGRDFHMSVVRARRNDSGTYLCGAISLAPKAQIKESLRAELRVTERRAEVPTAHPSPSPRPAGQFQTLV

T13 sequence (Q15116 21-170 P158A): as the sequence (Q15116 21-170 P89A) above, with A69P, P138A counted along it
T24 sequence (Q15116 21-170 S60A): as the sequence (Q15116 21-170 P89A) above, with S40A, A69P counted along it
T1 sequence (Q15116 21-170 C93A): as the sequence (Q15116 21-170 P89A) above, with A69P, C73A counted along it
T3 sequence (Q15116 21-170 G124A): as the sequence (Q15116 21-170 P89A) above, with A69P, G104A counted along it
T25 sequence (Q15116 21-170 Y68A): as the sequence (Q15116 21-170 P89A) above, with Y48A, A69P counted along it
T22 sequence (Q15116 21-170 N49A): as the sequence (Q15116 21-170 P89A) above, with N29A, A69P counted along it
T5 sequence (Q15116 21-170 A132G): as the sequence (Q15116 21-170 P89A) above, with A69P, A112G counted along it
T19 sequence (Q15116 21-170 L42A): as the sequence (Q15116 21-170 P89A) above, with L22A, A69P counted along it
T27 sequence (Q15116 21-170 P72A): as the sequence (Q15116 21-170 P89A) above, with P52A, A69P counted along it
T11 sequence (Q15116 21-170 H155A): as the sequence (Q15116 21-170 P89A) above, with A69P, H135A counted along it
T26 sequence (Q15116 21-170 S71A): as the sequence (Q15116 21-170 P89A) above, with S51A, A69P counted along it
T20 sequence (Q15116 21-170 V44A): as the sequence (Q15116 21-170 P89A) above, with V24A, A69P counted along it
T8 sequence (Q15116 21-170 E136A): as the sequence (Q15116 21-170 P89A) above, with A69P, E116A counted along it
T2 sequence (Q15116 21-170 N102A): as the sequence (Q15116 21-170 P89A) above, with A69P, N82A counted along it
T23 sequence (Q15116 21-170 T59A): as the sequence (Q15116 21-170 P89A) above, with T39A, A69P counted along it
T6 sequence (Q15116 21-170 Q133A): as the sequence (Q15116 21-170 P89A) above, with A69P, Q113A counted along it
T29 sequence (Q15116 21-170 P83A): as the sequence (Q15116 21-170 P89A) above, with P63A, A69P counted along it
T10 sequence (Q15116 21-170 A149G): as the sequence (Q15116 21-170 P89A) above, with A69P, A129G counted along it
T12 sequence (Q15116 21-170 P156A): as the sequence (Q15116 21-170 P89A) above, with A69P, P136A counted along it
T18 sequence (Q15116 21-170 D29A): as the sequence (Q15116 21-170 P89A) above, with D9A, A69P counted along it
T28 sequence (Q15116 21-170 A80G): as the sequence (Q15116 21-170 P89A) above, with A60G, A69P counted along it
T30 sequence (Q15116 21-170 Q88A): as the sequence (Q15116 21-170 P89A) above, with Q68A, A69P counted along it
T7 sequence (Q15116 21-170 K135A): as the sequence (Q15116 21-170 P89A) above, with A69P, K115A counted along it
T16 sequence (Q15116 21-170 P28L): as the sequence (Q15116 21-170 P89A) above, with P8L, A69P counted along it
T4 sequence (Q15116 21-170 K131A): as the sequence (Q15116 21-170 P89A) above, with A69P, K111A counted along it
T15 sequence (Q15116 21-170 Q167A): as the sequence (Q15116 21-170 P89A) above, with A69P, Q147A counted along it

Binder	KD mutant/KD wild-type (human PD-1 ECD-Fc C93A) [ratio]	KD mutant/KD wild-type (human PD-1 ECD-Fc N102A) [ratio]	KD mutant/KD wild-type (human PD-1 ECD-Fc G124A) [ratio]	KD mutant/KD wild-type (human PD-1 ECD-Fc A132G) [ratio]	KD mutant/KD wild-type (human PD-1 ECD-Fc Q133A) [ratio]	KD mutant/KD wild-type (human PD-1 ECD-Fc K135A) [ratio]	KD mutant/KD wild-type (human PD-1 ECD-Fc L138A) [ratio]	KD mutant/KD wild-type (human PD-1 ECD-Fc A149G) [ratio]	KD mutant/KD wild-type (human PD-1 ECD-Fc H155A) [ratio]	KD mutant/KD wild-type (human PD-1 ECD-Fc P156A) [ratio]	KD mutant/KD wild-type (human PD-1 ECD-Fc P158A) [ratio]	KD mutant/KD wild-type (human PD-1 ECD-Fc Q165A) [ratio]	KD mutant/KD wild-type (human PD-1 ECD-Fc Q167A) [ratio]	KD mutant/KD wild-type (human PD-1 ECD-Fc P28L) [ratio]	KD mutant/KD wild-type (human PD-1 ECD-Fc A40T) [ratio]	KD mutant/KD wild-type (human PD-1 ECD-Fc D29A) [ratio]	KD mutant/KD wild-type (human PD-1 ECD-Fc L42A) [ratio]	KD mutant/KD wild-type (human PD-1 ECD-Fc V44A) [ratio]	KD mutant/KD wild-type (human PD-1 ECD-Fc G47A) [ratio]	KD mutant/KD wild-type (human PD-1 ECD-Fc N49A) [ratio]	also measured
12819.17149 Fab (Fab, V domains shown, monomeric Fab fragment) VH: EVQLLESGGGLVQPGGSLRLSCAASGFTFTRYDMVWVRQAPGKGLEWVAGIGDSNKMTRYAPAVKGRATISRDNSKNTLYLQMNSLRAEDTAVYYCAKGSCIACWDEAGRIDAWGQGTLVTVSS VL: SYELTQDPAVSVALGQTVRITCSGGGSYDGSSYYGWYQQKPGQAPVTVIYNNNNRPSDIPDRFSGSSSGNTASLTITGAQAEDEADYYCGSYDRPETNSDYVGMFGSGTKVTVL	1.2	1.5	0.5	53.4	0.7	4.2	1	0.8	1.1	1	1.2	1.1	0.8	1.9	2	1	1.3	1.4	1.6	1.1	binding result (human PD-1 ECD-Fc K131A): no binding (tested: 1 nM to 50 nM); KD mutant/KD wild-type (human PD-1 ECD-Fc E136A): 0.8 ratio; KD mutant/KD wild-type (human PD-1 ECD-Fc T59A): 0.9 ratio; KD mutant/KD wild-type (human PD-1 ECD-Fc S60A): 1.8 ratio; KD mutant/KD wild-type (human PD-1 ECD-Fc Y68A): 2.2 ratio; KD mutant/KD wild-type (human PD-1 ECD-Fc S71A): 0.9 ratio; KD mutant/KD wild-type (human PD-1 ECD-Fc P72A): 1.1 ratio; KD mutant/KD wild-type (human PD-1 ECD-Fc A80G): 1.2 ratio; KD mutant/KD wild-type (human PD-1 ECD-Fc P83A): 1.5 ratio; KD mutant/KD wild-type (human PD-1 ECD-Fc Q88A): 1.4 ratio; KD mutant/KD wild-type (human PD-1 ECD-Fc P89A): 1.1 ratio
13112.15380 Fab (Fab, V domains shown) VH: EVQLLESGGGLVQPGGSLRLSCAASGFTFSSYNMFWVRQAPGKGLEFVAEISGSNTGSRTWYAPAVKGRATISRDNSKNTLYLQMNSLRAEDTAVYYCAKSIYGGYCAGGYSCGVGLIDAWGQGTLVTVSS VL: SYELTQDPAVSVALGQTVRITCSGGSSDYYGWFQQKPGQAPVTVIYYNNKRPSDIPDRFSGSSSGNTASLTITGAQAEDEADYYCGNADSSVGVFGSGTKVTVL	1.1	0.7	1	1	0.9	1.2	1.2	1	1	1.5	1	1.1	0.9	0.7	0.6	1	2.2	9.9	0.6	1	KD mutant/KD wild-type (human PD-1 ECD-Fc K131A): 0.9 ratio; KD mutant/KD wild-type (human PD-1 ECD-Fc E136A): 1 ratio; KD mutant/KD wild-type (human PD-1 ECD-Fc T59A): 0.9 ratio; KD mutant/KD wild-type (human PD-1 ECD-Fc S60A): 1 ratio; KD mutant/KD wild-type (human PD-1 ECD-Fc Y68A): 0.8 ratio; KD mutant/KD wild-type (human PD-1 ECD-Fc S71A): 0.9 ratio; KD mutant/KD wild-type (human PD-1 ECD-Fc P72A): 1 ratio; KD mutant/KD wild-type (human PD-1 ECD-Fc A80G): 1 ratio; KD mutant/KD wild-type (human PD-1 ECD-Fc P83A): 0.9 ratio; KD mutant/KD wild-type (human PD-1 ECD-Fc Q88A): 0.9 ratio; KD mutant/KD wild-type (human PD-1 ECD-Fc P89A): 0.9 ratio
12865.17150 Fab (Fab, V domains shown, monomeric Fab fragment) VH: EVQLLESGGGLVQPGGSLRLSCAASGFDFSDHGMQWVRQAPGKGLEYVGVIDTTGRYTYYAPAVKGRATISRDNSKNTLYLQMNSLRAEDTAVYYCAKTTCVGGYLCNTVGSIDAWGQGTLVTVSS VL: SYELTQDPAVSVALGQTVRITCSGGGSSSYYGWYQQKPGQAPVTVIYDDTNRPSGIPDRFSGSSSGNTASLTITGAQAEDEADYYCGGYEGSSHAGIFGSGTKVTVL	0.9	0.6	4	1.4	1.4	1.1	1.1	1	1	1.1	0.9	1.1	1	0.5	1	0.9	0.5	0.8	0.5	0.7	binding result (human PD-1 ECD-Fc K131A): no binding (tested: 1 nM to 50 nM); binding result (human PD-1 ECD-Fc E136A): no binding (tested: 1 nM to 50 nM); KD mutant/KD wild-type (human PD-1 ECD-Fc T59A): 1 ratio; KD mutant/KD wild-type (human PD-1 ECD-Fc S60A): 0.6 ratio; KD mutant/KD wild-type (human PD-1 ECD-Fc Y68A): 1.4 ratio; KD mutant/KD wild-type (human PD-1 ECD-Fc S71A): 0.9 ratio; KD mutant/KD wild-type (human PD-1 ECD-Fc P72A): 1.8 ratio; KD mutant/KD wild-type (human PD-1 ECD-Fc A80G): 0.4 ratio; KD mutant/KD wild-type (human PD-1 ECD-Fc P83A): 0.8 ratio; KD mutant/KD wild-type (human PD-1 ECD-Fc Q88A): 1.4 ratio; KD mutant/KD wild-type (human PD-1 ECD-Fc P89A): 0.9 ratio

— patent US20210284734A1 (SYMPHOGEN A S, published 2021)
